Results taken from US20170022287A1 (Chugai, published 2017).

Key:
CRD1 [1] = target: T1, CRD1; assay: ELISA, coated CD137-Fc protein 2 µg/mL, antibody 10 or 5 µg/mL, absorbance 620 nm; Non (uncoated well) 0.216
T1 construct: also called fragmented human CD137-Fc fusion protein CRD1

CRD1-3 [2] = target: T2, CRD1-3; assay: as above
T2 construct: also called fragmented human CD137-Fc fusion protein CRD1-3

CRD1-2 [3] = target: T3, CRD1-2; assay: as above
T3 construct: also called fragmented human CD137-Fc fusion protein CRD1-2

CRD2-4 [4] = target: T4, CRD2-4; assay: as above
T4 construct: also called fragmented human CD137-Fc fusion protein CRD2-4

CRD2-3 [5] = target: T5, CRD2-3; assay: as above
T5 construct: also called fragmented human CD137-Fc fusion protein CRD2-3

CRD3-4 [6] = target: T6, CRD3-4; assay: as above
T6 construct: also called fragmented human CD137-Fc fusion protein CRD3-4

[7] = target: full-length human CD137-Fc fusion protein (human); assay: as above
CRD1 [8] = target: T1, CRD1; assay: ELISA, coated CD137-Fc protein 2 µg/mL, antibody 10 or 5 µg/mL; absorbance 620 nm divided by that of the uncoated well
Protocol: (§1) Fragmented human CD137-Fc fusion proteins were diluted to 2 μg/mL in an aqueous sodium carbonate solution adjusted to pH9.6. Fifty μL of a diluted fragmented human CD137-Fc fusion protein was added individually to each well of a Nunc MaxiSorp flat-bottom 96 well plate (Nunc). This was allowed to stand at 4° C. overnight or longer, and then the plate was allowed to stand at room temperature for one hour so that the plate has the same temperature as the room temperature. The solution containing the fragmented human CD137-Fc fusion protein was removed by tilting, and each well was washed three times with 300 μL of Wash buffer (TBS containing 0.1% Tween20, TaKaRa). Next, 150 μL of blocking buffer (TBS containing 2% BSA) was added to each well, and this was allowed to stand for one hour or more. The blocking buffer was removed by tilting, and each well was washed three times with Wash Buffer in a similar manner to an earlier step. Then, 50 μL of an antibody solution prepared in advance by dilution with TBS to 10 μg/mL or 5 μg/mL was added to each well. This was subjected to a speed of 600 rpm or so for one hour at room temperature to bind the antibody to the immobilized antigen. […] 100 μL of a secondary antibody solution produced by 1000-fold dilution with TBS containing 0.1% Tween20 was added to each well. For the secondary antibody, ANTIBODY ALKALINE PHOSPHATASE CONJUGATE HUMAN IMMUNOGLOBULIN ABSORBED Goat Anti-Human Kappa Alkaline Phosphate from BIOSOURCE was used in the case of antibodies carrying a Kappa chain, and Human Lambda Light Chain Antibody; Goat anti-Human Lambda Light Chain Antibody Alkaline Phosphatase Conjugated from BETHYL LABORATORIES INC. was used in the case of antibodies carrying a Lambda chain. […] Color development was performed using the BluePhos Microwell kit from KPL. After the chromogenic reaction was stopped using the AP stop solution from KPL, the absorbance was measured at 620 nm on an absorptiometer.

CRD1-3 [9] = target: T2, CRD1-3; assay: as above
Protocol: as §1

CRD1-2 [10] = target: T3, CRD1-2; assay: as above
Protocol: as §1

CRD2-4 [11] = target: T4, CRD2-4; assay: as above
Protocol: as §1

CRD2-3 [12] = target: T5, CRD2-3; assay: as above
Protocol: as §1

CRD3-4 [13] = target: T6, CRD3-4; assay: as above
Protocol: as §1

[14] = target: full-length human CD137-Fc fusion protein (human); assay: as above
Protocol: as §1

CRD1 [15] = target: T1, CRD1; assay: ELISA, coated CD137-Fc protein 2 µg/mL, antibody 10 or 5 µg/mL, absorbance 620 nm; Non (uncoated well) 0.061
Protocol: as §1

CRD1-3 [16] = target: T2, CRD1-3; assay: as above
Protocol: as §1

CRD1-2 [17] = target: T3, CRD1-2; assay: as above
Protocol: as §1

CRD2-4 [18] = target: T4, CRD2-4; assay: as above
Protocol: as §1

CRD2-3 [19] = target: T5, CRD2-3; assay: as above
Protocol: as §1

CRD3-4 [20] = target: T6, CRD3-4; assay: as above
Protocol: as §1

[21] = target: full-length human CD137-Fc fusion protein (human); assay: as above
Protocol: as §1

CRD1 [22] = target: T1, CRD1; assay: ELISA, coated CD137-Fc protein 2 µg/mL, antibody 10 or 5 µg/mL, absorbance 620 nm; Non (uncoated well) 0.051
Protocol: as §1

CRD1-3 [23] = target: T2, CRD1-3; assay: as above
Protocol: as §1

CRD1-2 [24] = target: T3, CRD1-2; assay: as above
Protocol: as §1

CRD2-4 [25] = target: T4, CRD2-4; assay: as above
Protocol: as §1

CRD2-3 [26] = target: T5, CRD2-3; assay: as above
Protocol: as §1

CRD3-4 [27] = target: T6, CRD3-4; assay: as above
Protocol: as §1

[28] = target: full-length human CD137-Fc fusion protein (human); assay: as above
Protocol: as §1

CRD1-3 [29] = target: T2, CRD1-3; assay: ELISA, coated CD137-Fc protein 2 µg/mL, antibody 10 or 5 µg/mL, absorbance 620 nm; Non (uncoated well) 0.165
CRD2-4 [30] = target: T4, CRD2-4; assay: as above
CRD2-3 [31] = target: T5, CRD2-3; assay: as above
CRD3-4 [32] = target: T6, CRD3-4; assay: as above
[33] = target: full-length human CD137-Fc fusion protein (human); assay: as above

T4 sequence (chain, as listed by the source limits assumed): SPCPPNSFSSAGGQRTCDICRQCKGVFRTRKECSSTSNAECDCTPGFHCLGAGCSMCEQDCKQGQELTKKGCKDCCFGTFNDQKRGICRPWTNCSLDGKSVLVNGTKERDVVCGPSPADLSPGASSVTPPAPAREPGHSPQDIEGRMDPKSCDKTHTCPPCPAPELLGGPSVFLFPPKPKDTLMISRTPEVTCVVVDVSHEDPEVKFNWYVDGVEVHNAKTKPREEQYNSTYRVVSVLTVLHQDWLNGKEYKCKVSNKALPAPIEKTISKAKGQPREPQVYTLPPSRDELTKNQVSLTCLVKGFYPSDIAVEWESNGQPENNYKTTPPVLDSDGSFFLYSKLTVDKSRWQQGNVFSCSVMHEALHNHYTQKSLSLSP
T5 sequence (chain, as listed by the source limits assumed): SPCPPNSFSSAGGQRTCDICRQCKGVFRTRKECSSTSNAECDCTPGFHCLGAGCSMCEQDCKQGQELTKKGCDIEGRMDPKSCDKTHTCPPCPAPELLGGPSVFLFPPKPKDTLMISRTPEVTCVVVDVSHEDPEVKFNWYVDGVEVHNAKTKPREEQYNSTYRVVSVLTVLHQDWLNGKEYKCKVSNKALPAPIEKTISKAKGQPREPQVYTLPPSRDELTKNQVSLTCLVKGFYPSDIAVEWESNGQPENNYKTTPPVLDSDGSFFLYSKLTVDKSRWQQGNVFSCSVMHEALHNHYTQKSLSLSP
T6 sequence (chain, as listed by the source limits assumed): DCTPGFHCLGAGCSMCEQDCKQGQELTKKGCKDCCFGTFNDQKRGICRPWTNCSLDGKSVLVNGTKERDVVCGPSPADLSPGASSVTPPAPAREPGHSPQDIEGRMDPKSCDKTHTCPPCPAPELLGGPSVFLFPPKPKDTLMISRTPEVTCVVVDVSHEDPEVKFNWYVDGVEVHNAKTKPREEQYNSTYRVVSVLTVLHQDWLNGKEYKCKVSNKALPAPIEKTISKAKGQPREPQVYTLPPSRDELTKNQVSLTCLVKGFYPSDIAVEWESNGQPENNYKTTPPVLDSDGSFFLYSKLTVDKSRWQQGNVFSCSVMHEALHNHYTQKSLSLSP
T2 sequence (chain, as listed by the source limits assumed): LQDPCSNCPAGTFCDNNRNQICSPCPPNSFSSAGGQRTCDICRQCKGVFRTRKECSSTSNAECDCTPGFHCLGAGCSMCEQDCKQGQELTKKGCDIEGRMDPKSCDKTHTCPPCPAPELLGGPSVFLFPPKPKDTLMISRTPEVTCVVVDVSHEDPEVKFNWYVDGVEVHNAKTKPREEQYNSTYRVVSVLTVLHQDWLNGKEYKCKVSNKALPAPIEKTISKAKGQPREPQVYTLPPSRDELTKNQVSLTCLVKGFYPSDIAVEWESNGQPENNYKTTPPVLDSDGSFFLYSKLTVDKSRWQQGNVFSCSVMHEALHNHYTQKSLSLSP
Chain of full-length human CD137-Fc fusion protein (human) (chain, as listed by the source limits assumed): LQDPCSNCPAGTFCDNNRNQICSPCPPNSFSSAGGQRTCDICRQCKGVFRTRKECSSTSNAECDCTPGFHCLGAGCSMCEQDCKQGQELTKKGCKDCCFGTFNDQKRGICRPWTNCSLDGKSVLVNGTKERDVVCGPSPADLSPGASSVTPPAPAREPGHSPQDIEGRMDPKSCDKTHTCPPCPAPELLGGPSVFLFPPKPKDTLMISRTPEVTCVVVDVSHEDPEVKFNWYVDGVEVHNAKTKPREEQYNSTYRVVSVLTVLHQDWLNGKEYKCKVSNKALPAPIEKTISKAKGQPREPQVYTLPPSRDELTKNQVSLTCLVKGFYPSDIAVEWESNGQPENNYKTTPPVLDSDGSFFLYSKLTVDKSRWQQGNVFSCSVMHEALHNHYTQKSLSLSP
T1 sequence (chain, as listed by the source limits assumed): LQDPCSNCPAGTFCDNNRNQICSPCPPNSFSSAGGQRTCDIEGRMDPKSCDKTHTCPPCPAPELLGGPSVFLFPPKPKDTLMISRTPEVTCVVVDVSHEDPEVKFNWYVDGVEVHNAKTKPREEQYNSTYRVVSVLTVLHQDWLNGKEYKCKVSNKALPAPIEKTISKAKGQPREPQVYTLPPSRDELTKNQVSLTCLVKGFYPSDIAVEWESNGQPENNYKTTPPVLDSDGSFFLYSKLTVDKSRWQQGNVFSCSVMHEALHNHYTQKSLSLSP
T3 sequence (chain, as listed by the source limits assumed): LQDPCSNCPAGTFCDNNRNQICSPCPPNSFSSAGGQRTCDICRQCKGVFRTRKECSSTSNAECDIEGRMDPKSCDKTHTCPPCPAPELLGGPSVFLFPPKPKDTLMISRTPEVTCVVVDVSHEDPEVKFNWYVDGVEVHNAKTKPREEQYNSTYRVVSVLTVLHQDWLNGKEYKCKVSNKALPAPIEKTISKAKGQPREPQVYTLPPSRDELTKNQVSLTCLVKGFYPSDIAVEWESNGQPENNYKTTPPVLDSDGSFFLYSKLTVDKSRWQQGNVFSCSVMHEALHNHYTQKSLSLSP

B1: R5 (antibody, V domains shown)
VH: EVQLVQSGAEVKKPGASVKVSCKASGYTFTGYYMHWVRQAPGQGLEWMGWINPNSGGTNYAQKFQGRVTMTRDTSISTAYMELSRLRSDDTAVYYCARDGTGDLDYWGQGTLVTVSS
VL: QSALTQPRSVSGSPGQSVTISCTGTSSDVGVYDYVSWYQQFPGKAPKLMIYDVNKRPSGVPDRFSGSKSGNTASLTVSGLQAEDEADYYCCSYSGTDIRWLFGGGTKLTVL
notes: Naive library clone; Fab on phage in the phage ELISA
ELISA color development level (CRD1 [1]): 0.278
ELISA color development level (CRD1-3 [2]): 1.36
ELISA color development level (CRD1-2 [3]): 1.7
ELISA color development level (CRD2-4 [4]): 0.25
ELISA color development level (CRD2-3 [5]): 0.274
ELISA color development level (CRD3-4 [6]): 0.161
ELISA color development level [7]: 1.88
Ratio with respect to Non-Coating (CRD1 [8]): 1.3
Ratio with respect to Non-Coating (CRD1-3 [9]): 6.3
Ratio with respect to Non-Coating (CRD1-2 [10]): 7.9
Ratio with respect to Non-Coating (CRD2-4 [11]): 1.2
Ratio with respect to Non-Coating (CRD2-3 [12]): 1.3
Ratio with respect to Non-Coating (CRD3-4 [13]): 0.7
Ratio with respect to Non-Coating [14]: 8.7

B2: R3 (antibody, V domains shown)
VH: EVQLVQSGAEVKKPGASVKVSCKASGYTFTSYYTHWVRQAPGQGLEWMGIINPSGGSTSYAQKFQGRVTMTRDTSTSTVYMELSSLRSEDTAVYYCARGAPEYSSSSDYWGQGTMVTVSS
VL: QSALTQPASVSGSPGQSITISCTGTSSDVGGYNFVSWYQQHPGKAPKLMIYDVSKRPSGVSTRFSGSKSGNTASLTISGLQAEDEADYYCNSYTTSSTRWMFGGGTKVTVL
notes: as for B1
ELISA color development level (CRD1 [15]): 0.103
ELISA color development level (CRD1-3 [16]): 1.12
ELISA color development level (CRD1-2 [17]): 1.74
ELISA color development level (CRD2-4 [18]): 0.0875
ELISA color development level (CRD2-3 [19]): 0.0995
ELISA color development level (CRD3-4 [20]): 0.077
ELISA color development level [21]: 2.06
Ratio with respect to Non-Coating (CRD1 [8]): 1.7
Ratio with respect to Non-Coating (CRD1-3 [9]): 18.4
Ratio with respect to Non-Coating (CRD1-2 [10]): 28.5
Ratio with respect to Non-Coating (CRD2-4 [11]): 1.4
Ratio with respect to Non-Coating (CRD2-3 [12]): 1.6
Ratio with respect to Non-Coating (CRD3-4 [13]): 1.3
Ratio with respect to Non-Coating [14]: 33.7

B3: R4 (antibody, V domains shown)
VH: EVQLVQSGAEVKKPGASVKVSCKASGYTFSGYYMHWVRQAPGQGLEWMGWINPNSGDTNYAQNFQGRVTMTRDTSISTAYMELSRLRSDDTAVYYCARDGTGYSSSPDYWGQGTPVTVSS
VL: QSALTQPASVSGSPGQSITISCTGTSSDVGGYNYVSWYQQHPGKAPKLMIYDVSNRPSGVSNRFSGSKSGNTASLTISGLQAEDEADYYCSSYTSSSTRWVFGGGTKLTVL
notes: as for B1
ELISA color development level (CRD1 [22]): 0.0635
ELISA color development level (CRD1-3 [23]): 0.779
ELISA color development level (CRD1-2 [24]): 1.49
ELISA color development level (CRD2-4 [25]): 0.065
ELISA color development level (CRD2-3 [26]): 0.0585
ELISA color development level (CRD3-4 [27]): 0.056
ELISA color development level [28]: 1.89
Ratio with respect to Non-Coating (CRD1 [8]): 1.2
Ratio with respect to Non-Coating (CRD1-3 [9]): 15.3
Ratio with respect to Non-Coating (CRD1-2 [10]): 29.3
Ratio with respect to Non-Coating (CRD2-4 [11]): 1.3
Ratio with respect to Non-Coating (CRD2-3 [12]): 1.1
Ratio with respect to Non-Coating (CRD3-4 [13]): 1.1
Ratio with respect to Non-Coating [14]: 37.1

B4: R6 (antibody, V domains shown)
VH: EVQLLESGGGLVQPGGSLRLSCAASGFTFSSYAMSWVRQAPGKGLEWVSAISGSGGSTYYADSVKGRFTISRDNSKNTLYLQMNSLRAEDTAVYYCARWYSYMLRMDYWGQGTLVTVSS
VL: DIQMTQSPSSLSASVGDRVTITCRASQSISSYLNWYQQKPGKAPKLLIYAASSLQSGVPSRFSGSGSGTDFTLTISSLQPEDFATYYCQQFHSFPLTFGGGTKVEIK
notes: Synthetic library clone; Fab on phage in the phage ELISA
ELISA color development level (CRD1-3 [29]): 2.3
ELISA color development level (CRD2-4 [30]): 2.34
ELISA color development level (CRD2-3 [31]): 2.56
ELISA color development level (CRD3-4 [32]): 2.73
ELISA color development level [33]: 2.16
Ratio with respect to Non-Coating (CRD1-3 [9]): 13.9
Ratio with respect to Non-Coating (CRD2-4 [11]): 14.2
Ratio with respect to Non-Coating (CRD2-3 [12]): 15.5
Ratio with respect to Non-Coating (CRD3-4 [13]): 16.6
Ratio with respect to Non-Coating [14]: 13.1
